Laboratory results as given in US6884597B1, “Method for detecting acetyltransferase and deacetylase activities and method for screening inhibitors or enhancers of these enzymes” (Medical & Biological Laboratories, Co., Ltd., priority 1998, dated 2005).

System: sub p53-1 and sub p53-2 peptides
Experiment: ELISA system for measuring the deacetylase activity (liquid and solid phase)
Type: biochemical, human
Details: 0 to 10 μg/ml; liquid and solid phases; depending on the concentration; FIGS. 11 and 12
Procedure: Two peptide substrates “Sub Ac p53-1” (SEQ ID NO: 17/Bio-STSRHKK(Ac)LMFKTE and “Sub Ac p53-2” (SEQ ID NO: 18/Bio-SHLKSKK (Ac) GQSTSR) in which an acetyl group was introduced into the ε amino group on the 373rd and 382nd lysine residues of human p53, were prepared by a peptide synthesizer. An amino acid in a peptide is shown by the one-letter code and “Bio” at the amino ends means biotin. K(Ac) indicates an acetylated lysine residue. Ninety percent or higher purity of the synthesized peptides was confirmed by HPLC. “Sub Ac p53-1” and “Sub Ac p53-2” were composed of amino acid residues 376 to 388 and 367 to 379, of human p53, respectively.
Two peptides substrate were dissolved in PBS to 10 μg/ml. 50 μl of each peptide solution were added to each well on a microtiter plate for ELISA, and sensitized at 4° C. overnight. […]
The synthesized peptide substrates and the recombinant deacetylase were reacted in the liquid phase, and the enzyme activity was measured by ELISA system using a microtiter plate. […] 100 μl of 1.5 N phosphate solution were added thereto to terminate the coloring reaction, and absorbance at 450 nm was measured using a microtiter plate reader. • Solid Phase Analysis System (Refer to FIG. 4) […]

Substance: recombinant HDAC1: recombinant deacetylase HDAC1/RPD3 (full length) purified from E. coli
- deacetylase activities in sub p53-1 and sub p53-2 peptides: detected
